Substrate in data set [1]: CC(=O)N[C@@H](CC(C)C)C(=O)NCC(=O)N[C@@H](CCCCNC(=O)C(F)(F)F)C(=O)Nc1ccc2c(C)cc(=O)oc2c1
The data set is described as follows: Activity of HDAC8 at 10 uM.

Substrate in data set [2]: CC(=O)NCCCC[C@H](NC(=O)CNC(=O)[C@H](CC(C)C)NC(C)=O)C(=O)Nc1ccc2c(C)cc(=O)oc2c1
Particulars: 10 uM.

Substrate in data set [3]: CC(=O)N[C@@H](CC(C)C)C(=O)NCC(=O)N[C@@H](CCCCNC(=O)C(F)(F)F)C(=O)Nc1ccc2c(C)cc(=O)oc2c1
The data set is described as follows: Activity of HDAC9 at 10 uM.

Substrate in data set [4]: CC(=O)N[C@@H](CC(C)C)C(=O)NCC(=O)N[C@@H](CCCCNC(=O)C(F)(F)F)C(=O)Nc1ccc2c(C)cc(=O)oc2c1
The data set is described as follows: Activity of HDAC7 at 10 uM.

Substrate in data set [5]: CC(=O)N[C@@H](CC(C)C)C(=O)NCC(=O)N[C@@H](CCCCNC(=O)C(F)(F)F)C(=O)Nc1ccc2c(C)cc(=O)oc2c1
The data set is described as follows: Activity of HDAC4 at 10 uM.

Substrate in data set [6]: CC(=O)NCCCC[C@H](NC(=O)CNC(=O)[C@H](CC(C)C)NC(C)=O)C(=O)Nc1ccc2c(C)cc(=O)oc2c1
Conditions: 10 uM. The source holds these as a separate data set.

B1: Histone deacetylase 8 (Homo sapiens), Q9BY41 (protein)
chain: MEEPEEPADSGQSLVPVYIYSPEYVSMCDSLAKIPKRASMVHSLIEAYALHKQMRIVKPKVASMEEMATFHTDAYLQHLQKVSQEGDDDHPDSIEYGLGYDCPATEGIFDYAAAIGGATITAAQCLIDGMCKVAINWSGGWHHAKKDEASGFCYLNDAVLGILRLRRKFERILYVDLDLHHGDGVEDAFSFTSKVMTVSLHKFSPGFFPGTGDVSDVGLGKGRYYSVNVPIQDGIQDEKYYQICESVLKEVYQAFNPKAVVLQLGADTIAGDPMCSFNMTPVGIGKCLKYILQWQLATLILGGGGYNLANTARCWTYLTGVILGKTLSSEIPDHEFFTAYGPDYVLEITPSCRPDRNEPHRIQQILNYIKGNLKHVV
Broadly, the Km is the concentration of substrate that gives half-maximal velocity. With B1, the Km in data set [1] came to 190 µM.

B2: Histone deacetylase 3 (Homo sapiens), O15379 (protein)
chain: MAKTVAYFYDPDVGNFHYGAGHPMKPHRLALTHSLVLHYGLYKKMIVFKPYQASQHDMCRFHSEDYIDFLQRVSPTNMQGFTKSLNAFNVGDDCPVFPGLFEFCSRYTGASLQGATQLNNKICDIAINWAGGLHHAKKFEASGFCYVNDIVIGILELLKYHPRVLYIDIDIHHGDGVQEAFYLTDRVMTVSFHKYGNYFFPGTGDMYEVGAESGRYYCLNVPLRDGIDDQSYKHLFQPVINQVVDFYQPTCIVLQCGADSLGCDRLGCFNLSIRGHGECVEYVKSFNIPLLVLGGGGYTVRNVARCWTYETSLLVEEAISEELPYSEYFEYFAPDFTLHPDVSTRIENQNSRQYLDQIRQTIFENLKMLNHAPSVQIHDVPADLLTYDRTDEADAEERGPEENYSRPEAPNEFYDGDHDNDKESDVEI
With B2, the Km in data set [2] worked out at 6 µM.

B3: Histone deacetylase 9 (Homo sapiens), Q9UKV0 (protein)
chain: MHSMISSVDVKSEVPVGLEPISPLDLRTDLRMMMPVVDPVVREKQLQQELLLIQQQQQIQKQLLIAEFQKQHENLTRQHQAQLQEHIKELLAIKQQQELLEKEQKLEQQRQEQEVERHRREQQLPPLRGKDRGRERAVASTEVKQKLQEFLLSKSATKDTPTNGKNHSVSRHPKLWYTAAHHTSLDQSSPPLSGTSPSYKYTLPGAQDAKDDFPLRKTASEPNLKVRSRLKQKVAERRSSPLLRRKDGNVVTSFKKRMFEVTESSVSSSSPGSGPSSPNNGPTGSVTENETSVLPPTPHAEQMVSQQRILIHEDSMNLLSLYTSPSLPNITLGLPAVPSQLNASNSLKEKQKCETQTLRQGVPLPGQYGGSIPASSSHPHVTLEGKPPNSSHQALLQHLLLKEQMRQQKLLVAGGVPLHPQSPLATKERISPGIRGTHKLPRHRPLNRTQSAPLPQSTLAQLVIQQQHQQFLEKQKQYQQQIHMNKLLSKSIEQLKQPGSHLEEAEEELQGDQAMQEDRAPSSGNSTRSDSSACVDDTLGQVGAVKVKEEPVDSDEDAQIQEMESGEQAAFMQQPFLEPTHTRALSVRQAPLAAVGMDGLEKHRLVSRTHSSPAASVLPHPAMDRPLQPGSATGIAYDPLMLKHQCVCGNSTTHPEHAGRIQSIWSRLQETGLLNKCERIQGRKASLEEIQLVHSEHHSLLYGTNPLDGQKLDPRILLGDDSQKFFSSLPCGGLGVDSDTIWNELHSSGAARMAVGCVIELASKVASGELKNGFAVVRPPGHHAEESTAMGFCFFNSVAITAKYLRDQLNISKILIVDLDVHHGNGTQQAFYADPSILYISLHRYDEGNFFPGSGAPNEVGTGLGEGYNINIAWTGGLDPPMGDVEYLEAFRTIVKPVAKEFDPDMVLVSAGFDALEGHTPPLGGYKVTAKCFGHLTKQLMTLADGRVVLALEGGHDLTAICDASEACVNALLGNELEPLAEDILHQSPNMNAVISLQKIIEIQSMSLKFS
For the protein B3, the Michaelis-Menten constant (Km) in data set [3] was 37 µM.

B4: Histone deacetylase 7 (Homo sapiens), Q8WUI4 (protein)
chain: MDLRVGQRPPVEPPPEPTLLALQRPQRLHHHLFLAGLQQQRSVEPMRLSMDTPMPELQVGPQEQELRQLLHKDKSKRSAVASSVVKQKLAEVILKKQQAALERTVHPNSPGIPYRTLEPLETEGATRSMLSSFLPPVPSLPSDPPEHFPLRKTVSEPNLKLRYKPKKSLERRKNPLLRKESAPPSLRRRPAETLGDSSPSSSSTPASGCSSPNDSEHGPNPILGSEALLGQRLRLQETSVAPFALPTVSLLPAITLGLPAPARADSDRRTHPTLGPRGPILGSPHTPLFLPHGLEPEAGGTLPSRLQPILLLDPSGSHAPLLTVPGLGPLPFHFAQSLMTTERLSGSGLHWPLSRTRSEPLPPSATAPPPPGPMQPRLEQLKTHVQVIKRSAKPSEKPRLRQIPSAEDLETDGGGPGQVVDDGLEHRELGHGQPEARGPAPLQQHPQVLLWEQQRLAGRLPRGSTGDTVLLPLAQGGHRPLSRAQSSPAAPASLSAPEPASQARVLSSSETPARTLPFTTGLIYDSVMLKHQCSCGDNSRHPEHAGRIQSIWSRLQERGLRSQCECLRGRKASLEELQSVHSERHVLLYGTNPLSRLKLDNGKLAGLLAQRMFVMLPCGGVGVDTDTIWNELHSSNAARWAAGSVTDLAFKVASRELKNGFAVVRPPGHHADHSTAMGFCFFNSVAIACRQLQQQSKASKILIVDWDVHHGNGTQQTFYQDPSVLYISLHRHDDGNFFPGSGAVDEVGAGSGEGFNVNVAWAGGLDPPMGDPEYLAAFRIVVMPIAREFSPDLVLVSAGFDAAEGHPAPLGGYHVSAKCFGYMTQQLMNLAGGAVVLALEGGHDLTAICDASEACVAALLGNRVDPLSEEGWKQKPNLNAIRSLEAVIRVHSKYWGCMQRLASCPDSWVPRVPGADKEEVEAVTALASLSVGILAEDRPSEQLVEEEEPMNL
As for B4, the Km in data set [4] was 19.8 µM.

B5: Histone deacetylase 4 (Homo sapiens), P56524 (protein)
chain: MSSQSHPDGLSGRDQPVELLNPARVNHMPSTVDVATALPLQVAPSAVPMDLRLDHQFSLPVAEPALREQQLQQELLALKQKQQIQRQILIAEFQRQHEQLSRQHEAQLHEHIKQQQEMLAMKHQQELLEHQRKLERHRQEQELEKQHREQKLQQLKNKEKGKESAVASTEVKMKLQEFVLNKKKALAHRNLNHCISSDPRYWYGKTQHSSLDQSSPPQSGVSTSYNHPVLGMYDAKDDFPLRKTASEPNLKLRSRLKQKVAERRSSPLLRRKDGPVVTALKKRPLDVTDSACSSAPGSGPSSPNNSSGSVSAENGIAPAVPSIPAETSLAHRLVAREGSAAPLPLYTSPSLPNITLGLPATGPSAGTAGQQDAERLTLPALQQRLSLFPGTHLTPYLSTSPLERDGGAAHSPLLQHMVLLEQPPAQAPLVTGLGALPLHAQSLVGADRVSPSIHKLRQHRPLGRTQSAPLPQNAQALQHLVIQQQHQQFLEKHKQQFQQQQLQMNKIIPKPSEPARQPESHPEETEEELREHQALLDEPYLDRLPGQKEAHAQAGVQVKQEPIESDEEEAEPPREVEPGQRQPSEQELLFRQQALLLEQQRIHQLRNYQASMEAAGIPVSFGGHRPLSRAQSSPASATFPVSVQEPPTKPRFTTGLVYDTLMLKHQCTCGSSSSHPEHAGRIQSIWSRLQETGLRGKCECIRGRKATLEELQTVHSEAHTLLYGTNPLNRQKLDSKKLLGSLASVFVRLPCGGVGVDSDTIWNEVHSAGAARLAVGCVVELVFKVATGELKNGFAVVRPPGHHAEESTPMGFCYFNSVAVAAKLLQQRLSVSKILIVDWDVHHGNGTQQAFYSDPSVLYMSLHRYDDGNFFPGSGAPDEVGTGPGVGFNVNMAFTGGLDPPMGDAEYLAAFRTVVMPIASEFAPDVVLVSSGFDAVEGHPTPLGGYNLSARCFGYLTKQLMGLAGGRIVLALEGGHDLTAICDASEACVSALLGNELDPLPEKVLQQRPNANAVRSMEKVMEIHSKYWRCLQRTTSTAGRSLIEAQTCENEEAETVTAMASLSVGVKPAEKRPDEEPMEEEPPL
With B5, the Km in data set [5] is 10.3 µM.

B6: Protein deacetylase HDAC6 (Homo sapiens), Q9UBN7 (protein)
chain: MTSTGQDSTTTRQRRSRQNPQSPPQDSSVTSKRNIKKGAVPRSIPNLAEVKKKGKMKKLGQAMEEDLIVGLQGMDLNLEAEALAGTGLVLDEQLNEFHCLWDDSFPEGPERLHAIKEQLIQEGLLDRCVSFQARFAEKEELMLVHSLEYIDLMETTQYMNEGELRVLADTYDSVYLHPNSYSCACLASGSVLRLVDAVLGAEIRNGMAIIRPPGHHAQHSLMDGYCMFNHVAVAARYAQQKHRIRRVLIVDWDVHHGQGTQFTFDQDPSVLYFSIHRYEQGRFWPHLKASNWSTTGFGQGQGYTINVPWNQVGMRDADYIAAFLHVLLPVALEFQPQLVLVAAGFDALQGDPKGEMAATPAGFAQLTHLLMGLAGGKLILSLEGGYNLRALAEGVSASLHTLLGDPCPMLESPGAPCRSAQASVSCALEALEPFWEVLVRSTETVERDNMEEDNVEESEEEGPWEPPVLPILTWPVLQSRTGLVYDQNMMNHCNLWDSHHPEVPQRILRIMCRLEELGLAGRCLTLTPRPATEAELLTCHSAEYVGHLRATEKMKTRELHRESSNFDSIYICPSTFACAQLATGAACRLVEAVLSGEVLNGAAVVRPPGHHAEQDAACGFCFFNSVAVAARHAQTISGHALRILIVDWDVHHGNGTQHMFEDDPSVLYVSLHRYDHGTFFPMGDEGASSQIGRAAGTGFTVNVAWNGPRMGDADYLAAWHRLVLPIAYEFNPELVLVSAGFDAARGDPLGGCQVSPEGYAHLTHLLMGLASGRIILILEGGYNLTSISESMAACTRSLLGDPPPLLTLPRPPLSGALASITETIQVHRRYWRSLRVMKVEDREGPSSSKLVTKKAPQPAKPRLAERMTTREKKVLEAGMGKVTSASFGEESTPGQTNSETAVVALTQDQPSEAATGGATLAQTISEAAIGGAMLGQTTSEEAVGGATPDQTTSEETVGGAILDQTTSEDAVGGATLGQTTSEEAVGGATLAQTTSEAAMEGATLDQTTSEEAPGGTELIQTPLASSTDHQTPPTSPVQGTTPQISPSTLIGSLRTLELGSESQGASESQAPGEENLLGEAAGGQDMADSMLMQGSRGLTDQAIFYAVTPLPWCPHLVAVCPIPAAGLDVTQPCGDCGTIQENWVCLSCYQVYCGRYINGHMLQHHGNSGHPLVLSYIDLSAWCYYCQAYVHHQALLDVKNIAHQNKFGEDMPHPH
Take B6: in data set [6], the Michaelis-Menten constant (Km) was found to be 16 µM.

The values above are taken from ChEMBL document CHEMBL1212811, “Chemical phylogenetics of histone deacetylases” (Nat Chem Biol, 2010).
